Laboratory results as given in patent US20250195917A1, “SEQUENTIAL TRANSARTERIAL CHEMOEMBOLIZATION, STEREOTACTIC BODY RADIOTHERAPY, AND IMMUNOTHERAPY (START-FIT) FOR HEPATOCELLULAR CARCINOMA” (The University of Hong Kong, priority 2023, published 2025).
Read-outs that look alike come from different tables or passages of the source.

Assay type: in vivo
Conditions: for Edema / Fatigue / Fever / Infusion-related reaction / Musculoskeletal pain / Others (Constitutional) / Weight decreased: Constitutional; for Constipation / Decreased appetite / Diarrhea / Gastritis/GI bleed / Nausea / Others (Gastrointestinal) / Stomatitis / Vomiting: Gastrointestinal; for Any adverse event: worst toxicity grade; for ALT increased / AST increased / Abdominal pain / Bilirubin raised / GGT increased: Hepatic
Description: All patients underwent a single treatment of conventional TACE within 28 days of study enrolment. Conventional TACE was performed by supra-selective cannulation of all the branches supplying the tumor. The emulsion was prepared by mixing iodised oil with cisplatin (1 mg/mL) in a 1:1 ratio. A maximum of 60 mL of emulsion was injected. Preparation of the emulsion was followed by embolisation with gelfoam (gelatin granules) pellets of 1 mm diameter mixed with 40 mg of gentamicin. At 28 days (plus or minus 3 days) after the completion of TACE, stereotactic body radiotherapy was delivered to all lesions. Patients were immobilised via a vacuum foam bag (Vac-Lok™; MEDTEC, IA, USA) and active breathing control to reduce liver motion. Imaging was performed on the inhale breath-hold contrast CT. Gross tumor volume was defined as a tumor focus that was visualised by contrast imaging. The clinical target volume was defined as gross tumor volume with expansion to include the area stained with iodised oil. The individualised planning target volume margins were formulated to compensate for respiratory motion and setup errors. Cone beam CT was acquired on board before each treatment. A radiation dose of 27.5-40.0 Gy in five fractions delivered daily was allowed per protocol. The prescription isodose encompassed 95% of the planning target volume. The final dose was determined such that a maximum tumoricidal dose could be delivered to tumors while respecting the tolerance dose of the organ at risk (Table 3). The radiotherapy toxicity was assessed by CTCAE; version 4.01.
All patients underwent baseline contrast-enhanced MRI of the liver and CT of the thorax. Treatment response evaluation was assessed with MRI after cycle 4, cycle 8, and cycle 12 of avelumab and every 12 weeks thereafter (plus or minus 7 days). Radiological imaging was reported using the modified Response Evaluation Criteria in Solid Tumors (mRECIST). A CT of the thorax was done every 26 weeks or at the time of radiological or clinical evidence of disease progression according to mRECIST criteria. All patients were discussed in a multidisciplinary team board meeting of surgeons specializing in liver transplantation and liver surgery, clinical oncologists, interventional radiologists, and diagnostic radiologists. This meeting was held once every 2 weeks to decide resectability and treatment failure. All patients underwent complete tumor staging to exclude distant metastasis before surgery. A board-certified radiologist conducted an independent blinded review in addition to the investigator review. Safety assessments were documented throughout the treatment period. Adverse events were graded according to the US National Cancer Institute Common Terminology Criteria for Adverse Events (CTCAE; version 4.01). The frequency, duration, and severity of adverse events were recorded.
The primary endpoint was the percentage of patients deemed to be amenable to curative treatment after conversion therapy. Amenability for curative treatment was fulfilled when one of the following criteria was met: either a sustained complete response or sustained partial response achieved for at least 2 months and if curative treatment could be performed (based on investigator's review). […] Post-hoc analyses included radiological response according to immune RECIST, correlation of clinical outcomes with BCLC stage, albumin-bilirubin score, radiological assessment criteria, biomarkers, and median time to treatment response.

Q: What does the source list for avelumab?
A: Edema (Grade 1-2): 0 (0%) number of patients (%); Fatigue (Grade 1-2): 9 (27%) number of patients (%); Fever (Grade 1-2): 1 (3%) number of patients (%); Infusion-related reaction (Grade 1-2): 7 (21%) number of patients (%); Musculoskeletal pain (Grade 1-2): 0 (0%) number of patients (%); Others (Constitutional) (Grade 1-2): 9 (27%) number of patients (%); Weight decreased (Grade 1-2): 7 (21%) number of patients (%); Edema (Grade 3): 0 (0%) number of patients (%); Fatigue (Grade 3): 0 (0%) number of patients (%); Fever (Grade 3): 0 (0%) number of patients (%); Infusion-related reaction (Grade 3): 0 (0%) number of patients (%); Musculoskeletal pain (Grade 3): 0 (0%) number of patients (%); Others (Constitutional) (Grade 3): 0 (0%) number of patients (%); Weight decreased (Grade 3): 0 (0%) number of patients (%); Edema (Grade 4): 0 (0%) number of patients (%); Fatigue (Grade 4): 0 (0%) number of patients (%); Fever (Grade 4): 0 (0%) number of patients (%); Infusion-related reaction (Grade 4): 0 (0%) number of patients (%); Musculoskeletal pain (Grade 4): 0 (0%) number of patients (%); Others (Constitutional) (Grade 4): 0 (0%) number of patients (%); Weight decreased (Grade 4): 0 (0%) number of patients (%); Edema (Grade 5): 0 (0%) number of patients (%); Fatigue (Grade 5): 0 (0%) number of patients (%); Fever (Grade 5): 0 (0%) number of patients (%); Infusion-related reaction (Grade 5): 0 (0%) number of patients (%); Musculoskeletal pain (Grade 5): 0 (0%) number of patients (%); Others (Constitutional) (Grade 5): 0 (0%) number of patients (%); Weight decreased (Grade 5): 0 (0%) number of patients (%); Constipation (Grade 1-2): 2 (6%) number of patients (%); Decreased appetite (Grade 1-2): 4 (12%) number of patients (%); Diarrhea (Grade 1-2): 4 (12%) number of patients (%); Gastritis/GI bleed (Grade 1-2): 0 (0%) number of patients (%); Nausea (Grade 1-2): 2 (6%) number of patients (%); Others (Gastrointestinal) (Grade 1-2): 3 (9%) number of patients (%); Stomatitis (Grade 1-2): 0 (0%) number of patients (%); Vomiting (Grade 1-2): 1 (3%) number of patients (%); Constipation (Grade 3): 0 (0%) number of patients (%); Decreased appetite (Grade 3): 0 (0%) number of patients (%); Diarrhea (Grade 3): 0 (0%) number of patients (%); Gastritis/GI bleed (Grade 3): 0 (0%) number of patients (%); Nausea (Grade 3): 0 (0%) number of patients (%); Others (Gastrointestinal) (Grade 3): 0 (0%) number of patients (%); Stomatitis (Grade 3): 0 (0%) number of patients (%); Vomiting (Grade 3): 0 (0%) number of patients (%); Constipation (Grade 4): 0 (0%) number of patients (%); Decreased appetite (Grade 4): 0 (0%) number of patients (%); Diarrhea (Grade 4): 0 (0%) number of patients (%); Gastritis/GI bleed (Grade 4): 0 (0%) number of patients (%); Nausea (Grade 4): 0 (0%) number of patients (%); Others (Gastrointestinal) (Grade 4): 0 (0%) number of patients (%); Stomatitis (Grade 4): 0 (0%) number of patients (%); Vomiting (Grade 4): 0 (0%) number of patients (%); Constipation (Grade 5): 0 (0%) number of patients (%); Decreased appetite (Grade 5): 0 (0%) number of patients (%); Diarrhea (Grade 5): 0 (0%) number of patients (%); Gastritis/GI bleed (Grade 5): 0 (0%) number of patients (%); Nausea (Grade 5): 0 (0%) number of patients (%); Others (Gastrointestinal) (Grade 5): 0 (0%) number of patients (%); Stomatitis (Grade 5): 0 (0%) number of patients (%); Vomiting (Grade 5): 0 (0%) number of patients (%); Adverse event, Lead to discontinuation (Grade 1-2): 0 (0%) number of patients (%); Any adverse event (Grade 1-2): 27 (82%) number of patients (%); Adverse event, Lead to discontinuation (Grade 3): 1 (3%) number of patients (%); Any adverse event (Grade 3): 4 (12%) number of patients (%); Adverse event, Lead to discontinuation (Grade 4): 1 (3%) number of patients (%); Any adverse event (Grade 4): 1 (3%) number of patients (%); Adverse event, Lead to discontinuation (Grade 5): 0 (0%) number of patients (%); Any adverse event (Grade 5): 0 (0%) number of patients (%); ALT increased (Grade 1-2): 7 (21%) number of patients (%); AST increased (Grade 1-2): 6 (18%) number of patients (%); Abdominal pain (Grade 1-2): 1 (3%) number of patients (%); Bilirubin raised (Grade 1-2): 7 (21%) number of patients (%); GGT increased (Grade 1-2): 2 (6%) number of patients (%); ALT increased (Grade 3): 2 (6%) number of patients (%); AST increased (Grade 3): 1 (3%) number of patients (%); Abdominal pain (Grade 3): 0 (0%) number of patients (%); Bilirubin raised (Grade 3): 0 (0%) number of patients (%); GGT increased (Grade 3): 0 (0%) number of patients (%); ALT increased (Grade 4): 0 (0%) number of patients (%); AST increased (Grade 4): 1 (3%) number of patients (%); Abdominal pain (Grade 4): 0 (0%) number of patients (%); Bilirubin raised (Grade 4): 0 (0%) number of patients (%); GGT increased (Grade 4): 0 (0%) number of patients (%); ALT increased (Grade 5): 0 (0%) number of patients (%); AST increased (Grade 5): 0 (0%) number of patients (%); Abdominal pain (Grade 5): 0 (0%) number of patients (%); Bilirubin raised (Grade 5): 0 (0%) number of patients (%)
